Molecular target: T1, Human CDH6-ECD-His (human, UniProt P55285 54-615)
T1 construct: extracellular domain; Bought protein; also called human CDH6-ECD-His recombinant protein; Human CDH6-EC6D-His; not shown: His tag
T1 sequence (looked up): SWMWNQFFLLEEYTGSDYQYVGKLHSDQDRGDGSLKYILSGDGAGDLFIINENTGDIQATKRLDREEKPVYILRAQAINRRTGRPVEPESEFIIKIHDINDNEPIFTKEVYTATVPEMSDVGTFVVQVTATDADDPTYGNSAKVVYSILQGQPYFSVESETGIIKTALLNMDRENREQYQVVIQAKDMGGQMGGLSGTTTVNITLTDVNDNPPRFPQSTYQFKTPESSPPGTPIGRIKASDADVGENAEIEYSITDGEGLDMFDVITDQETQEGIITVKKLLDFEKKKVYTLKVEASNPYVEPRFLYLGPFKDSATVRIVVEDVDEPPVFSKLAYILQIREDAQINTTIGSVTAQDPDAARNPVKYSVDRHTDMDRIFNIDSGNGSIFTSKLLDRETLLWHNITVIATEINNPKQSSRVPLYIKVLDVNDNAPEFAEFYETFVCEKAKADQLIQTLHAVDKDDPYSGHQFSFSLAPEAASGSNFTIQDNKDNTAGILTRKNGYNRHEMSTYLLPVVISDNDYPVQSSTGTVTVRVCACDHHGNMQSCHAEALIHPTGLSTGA
Experiment: ELISA, antigen coated at 1 ug/mL
Procedure: CDH9 and […] are the most closely related family members to CDH6. Binding of CL069707-H1L1 on human CDH6, CDH9 and CDH10 ECD domains were analyzed by ELISA Binding Assay. Human […], CDH9-ECD-His and CDH10-ECD-His antigens were obtained from Acro Biosystems, Inc. 100 μL of 1 μg/mL of the antigens diluted in PBS were added to 96 well plates and incubated in 4° C. overnight. The plates were washed 3 times with 300 μL of washing buffer. Then 100 μL/well of 1% BSA blocking reagent were added to the plates, and incubated at 37° C. for 1 h then the blocking reagent were discarded. A 3-fold serial dilution of CL069707-H1L1 was added to the plates and then incubated at 37° C. for 1 h. Then the plates were washed 3 times with 300 μL of washing buffer. 100 μL/well of HRP-conjugated anti-Human antibody diluted in 1% BSA were added to the plates and then incubated at 37° C. for 1 h. The plates were washed 3 times with 300 μL of washing buffer. 100 μL/well of TMB substrate were added to the plates and incubated for about 10 min in room temperature. Then the reaction was stopped with 100 μL/well of stopping solution. OD450 was read with a plate reader and the data were processed.

- EC50: 0.1 nM
B1: CL069707-H1L1 (antibody, human IgG1, kappa, V domains shown)
VH: EVQLVESGGGLVQPGGSLRLSCAASGFTFTTYAMNWVRQAPGKGLEWVARIRIKNNNYATYYADSVTDRFTISRDDSKNSLYLQMNSLKTEDTAVYYCVRPDYGNYGLAYWGQGTLVTVSS
VL: DIQLTQSPSSLSASVGDRVTITCSASSSISSHYLHWYQQKPGKSPKLLIYRSFYLASGVPSRFSGSGSGTDFTLTISSLQPEDFATYYCQQDIVPLTFGQGTKLEIKR
notes: Humanized IgG1/kappa, produced in 293 cells; also called humanized CL069707-H1L1

Source: patent US20250090677A1 (MULTITUDE THERAPEUTICS, published 2025)
